Experiment in all cases: cell-based or functional assay
Test [1] has as its target hCav1.2 (human) (UniProt Q13936).
In test [2] the target is hKCNQ1/minK (human) (UniProt P51787).
Test [3] addresses hKV11.1/hERG (human) (UniProt Q12809).
Test [4] has as its target hNav1.5 (human) (UniProt Q14524).

This note sets out measurements from patent US20220177846A1.

hKV11.1/hERG (human), sequence (Q12809 whole entry): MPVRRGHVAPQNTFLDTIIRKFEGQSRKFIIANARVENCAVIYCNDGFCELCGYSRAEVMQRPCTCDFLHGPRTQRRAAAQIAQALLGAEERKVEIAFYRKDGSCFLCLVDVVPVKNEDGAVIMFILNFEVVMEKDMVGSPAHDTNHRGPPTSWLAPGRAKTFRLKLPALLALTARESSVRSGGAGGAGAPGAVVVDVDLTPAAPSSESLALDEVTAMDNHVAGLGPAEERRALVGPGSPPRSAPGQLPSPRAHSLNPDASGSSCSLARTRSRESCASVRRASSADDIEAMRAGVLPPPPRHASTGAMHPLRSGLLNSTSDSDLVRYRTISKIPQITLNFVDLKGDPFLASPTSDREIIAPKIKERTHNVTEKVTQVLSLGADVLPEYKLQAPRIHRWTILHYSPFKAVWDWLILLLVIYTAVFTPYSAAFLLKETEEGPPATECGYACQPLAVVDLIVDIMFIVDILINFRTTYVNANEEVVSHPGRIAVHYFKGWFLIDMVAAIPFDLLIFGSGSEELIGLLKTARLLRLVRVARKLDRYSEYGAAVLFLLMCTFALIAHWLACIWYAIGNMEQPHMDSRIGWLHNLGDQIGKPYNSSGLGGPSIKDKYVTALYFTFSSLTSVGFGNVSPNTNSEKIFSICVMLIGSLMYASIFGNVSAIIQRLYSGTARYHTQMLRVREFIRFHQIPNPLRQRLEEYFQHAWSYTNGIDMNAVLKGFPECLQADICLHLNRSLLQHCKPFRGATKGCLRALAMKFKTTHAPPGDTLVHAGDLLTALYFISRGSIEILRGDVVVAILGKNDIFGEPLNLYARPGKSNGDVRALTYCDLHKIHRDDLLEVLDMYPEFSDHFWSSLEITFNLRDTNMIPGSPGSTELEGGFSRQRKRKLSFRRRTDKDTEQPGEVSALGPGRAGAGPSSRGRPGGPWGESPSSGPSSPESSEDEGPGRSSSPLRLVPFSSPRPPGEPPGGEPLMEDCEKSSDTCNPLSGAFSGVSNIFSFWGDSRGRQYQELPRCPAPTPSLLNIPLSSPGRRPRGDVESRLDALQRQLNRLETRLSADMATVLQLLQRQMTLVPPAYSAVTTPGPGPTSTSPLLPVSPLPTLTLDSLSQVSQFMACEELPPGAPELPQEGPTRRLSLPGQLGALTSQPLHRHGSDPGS
hNav1.5 (human), sequence (Q14524 whole entry): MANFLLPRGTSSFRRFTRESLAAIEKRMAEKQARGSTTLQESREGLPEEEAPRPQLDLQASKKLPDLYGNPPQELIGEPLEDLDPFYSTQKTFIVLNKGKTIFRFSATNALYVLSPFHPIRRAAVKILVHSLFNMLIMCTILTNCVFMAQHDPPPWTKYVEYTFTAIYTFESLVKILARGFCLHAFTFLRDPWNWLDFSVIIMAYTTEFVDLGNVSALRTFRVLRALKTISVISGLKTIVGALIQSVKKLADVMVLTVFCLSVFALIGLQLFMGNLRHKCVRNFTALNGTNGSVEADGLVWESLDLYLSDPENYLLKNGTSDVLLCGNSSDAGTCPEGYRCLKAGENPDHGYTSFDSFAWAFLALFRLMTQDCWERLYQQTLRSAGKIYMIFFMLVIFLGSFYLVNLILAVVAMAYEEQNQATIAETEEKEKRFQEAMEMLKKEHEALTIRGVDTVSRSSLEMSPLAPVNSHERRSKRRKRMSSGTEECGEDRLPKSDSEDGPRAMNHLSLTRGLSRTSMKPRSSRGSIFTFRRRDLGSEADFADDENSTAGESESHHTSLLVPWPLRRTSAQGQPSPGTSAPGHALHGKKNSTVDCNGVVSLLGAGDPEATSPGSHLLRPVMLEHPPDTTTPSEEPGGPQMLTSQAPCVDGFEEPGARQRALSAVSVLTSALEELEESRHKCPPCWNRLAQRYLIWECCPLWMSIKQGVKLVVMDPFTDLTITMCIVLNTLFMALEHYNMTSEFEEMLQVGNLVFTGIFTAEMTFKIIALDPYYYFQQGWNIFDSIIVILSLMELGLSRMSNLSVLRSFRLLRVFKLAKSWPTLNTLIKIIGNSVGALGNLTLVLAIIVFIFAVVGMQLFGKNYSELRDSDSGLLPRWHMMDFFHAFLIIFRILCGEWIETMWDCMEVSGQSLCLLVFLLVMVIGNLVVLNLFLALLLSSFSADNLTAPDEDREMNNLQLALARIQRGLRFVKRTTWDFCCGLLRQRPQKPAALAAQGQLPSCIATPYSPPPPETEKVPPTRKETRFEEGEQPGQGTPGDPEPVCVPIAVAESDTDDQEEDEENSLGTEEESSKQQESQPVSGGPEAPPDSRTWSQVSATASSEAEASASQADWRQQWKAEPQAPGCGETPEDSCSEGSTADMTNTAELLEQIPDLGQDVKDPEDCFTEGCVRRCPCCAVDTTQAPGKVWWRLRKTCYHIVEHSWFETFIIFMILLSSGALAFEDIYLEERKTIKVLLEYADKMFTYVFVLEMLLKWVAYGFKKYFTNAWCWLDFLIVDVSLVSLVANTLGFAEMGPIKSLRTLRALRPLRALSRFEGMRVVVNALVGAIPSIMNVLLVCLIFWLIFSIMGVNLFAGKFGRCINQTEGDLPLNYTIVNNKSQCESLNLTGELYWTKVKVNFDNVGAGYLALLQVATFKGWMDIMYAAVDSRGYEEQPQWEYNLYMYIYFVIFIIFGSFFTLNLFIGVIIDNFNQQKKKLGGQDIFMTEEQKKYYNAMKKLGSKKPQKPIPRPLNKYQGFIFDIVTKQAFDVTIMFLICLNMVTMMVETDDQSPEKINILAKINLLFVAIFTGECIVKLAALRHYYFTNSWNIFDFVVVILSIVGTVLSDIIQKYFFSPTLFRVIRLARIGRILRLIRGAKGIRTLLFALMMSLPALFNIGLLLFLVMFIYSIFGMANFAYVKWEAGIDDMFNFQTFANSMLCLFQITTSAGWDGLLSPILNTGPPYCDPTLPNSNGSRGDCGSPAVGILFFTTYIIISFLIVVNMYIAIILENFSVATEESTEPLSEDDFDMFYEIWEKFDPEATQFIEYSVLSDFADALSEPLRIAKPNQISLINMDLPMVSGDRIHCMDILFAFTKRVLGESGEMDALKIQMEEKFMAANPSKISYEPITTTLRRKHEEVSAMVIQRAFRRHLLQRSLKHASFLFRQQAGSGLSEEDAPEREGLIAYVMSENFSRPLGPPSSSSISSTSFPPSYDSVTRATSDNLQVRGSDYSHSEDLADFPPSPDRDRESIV

For “Hi1a (recombinant, with non-native N-terminal serine) (peptide)”, in test [1], the % inhibition of hCav1.2 current, mean, 1 µM Hi1a was 8.98%; the % inhibition of hCav1.2 current, n1, 1 µM Hi1a came to 2.79%; the % inhibition of hCav1.2 current, n2, 1 µM Hi1a is 13.2%; the % inhibition of hCav1.2 current, n3, 1 µM Hi1a is 10.9%. In test [2], the % inhibition of hKCNQ1/mink current, mean, 1 µM Hi1a was determined as 0.17%; the % inhibition of hKCNQ1/mink current, n1, 1 µM Hi1a is 1.87%; the % inhibition of hKCNQ1/mink current, n2, 1 µM Hi1a is -0.67%; the % inhibition of hKCNQ1/mink current, n3, 1 µM Hi1a is -0.68%. In test [3], the % inhibition of hERG current, mean, 1 µM Hi1a is -6.2%; the % inhibition of hERG current, n1, 1 µM Hi1a is -7.5%; the % inhibition of hERG current, n2, 1 µM Hi1a stood at 1.58%; the % inhibition of hERG current, n3, 1 µM Hi1a is -12.7%. In test [4], this substance registered a % inhibition of hNav1.5 current, mean, 1 µM Hi1a of 8.46%; a % inhibition of hNav1.5 current, n1, 1 µM Hi1a of 7.31%; a % inhibition of hNav1.5 current, n2, 1 µM Hi1a of 11%; a % inhibition of hNav1.5 current, n3, 1 µM Hi1a of 7.1%. Besides, in test [4], the % inhibition, hNav1.5 Late current antagonist assay, mean, 1 µM Hi1a is -12.4%; the % inhibition, hNav1.5 Late current antagonist assay, n1, 1 µM Hi1a was -9.74%; the % inhibition, hNav1.5 Late current antagonist assay, n2, 1 µM Hi1a is -13.9%; the % inhibition, hNav1.5 Late current antagonist assay, n3, 1 µM Hi1a is -13.4%.
